For four molecules, koff and OD results are on record in patent publication US20220204603A1 (PHARMABCINE, published 2022).

Assay [1] deals with T1, Ang2 immobilized on a biosensor (Octet off-rate screening) (Homo sapiens (Human), UniProt O15123 19-496).
T1 construct: also called Ang2 antigen; not shown: It is a His tag if hAng2-his (R&D 623-AN/CF) was used, or an Fc if hAng2-Fc (PharmAbcine) was used
T1 sequence: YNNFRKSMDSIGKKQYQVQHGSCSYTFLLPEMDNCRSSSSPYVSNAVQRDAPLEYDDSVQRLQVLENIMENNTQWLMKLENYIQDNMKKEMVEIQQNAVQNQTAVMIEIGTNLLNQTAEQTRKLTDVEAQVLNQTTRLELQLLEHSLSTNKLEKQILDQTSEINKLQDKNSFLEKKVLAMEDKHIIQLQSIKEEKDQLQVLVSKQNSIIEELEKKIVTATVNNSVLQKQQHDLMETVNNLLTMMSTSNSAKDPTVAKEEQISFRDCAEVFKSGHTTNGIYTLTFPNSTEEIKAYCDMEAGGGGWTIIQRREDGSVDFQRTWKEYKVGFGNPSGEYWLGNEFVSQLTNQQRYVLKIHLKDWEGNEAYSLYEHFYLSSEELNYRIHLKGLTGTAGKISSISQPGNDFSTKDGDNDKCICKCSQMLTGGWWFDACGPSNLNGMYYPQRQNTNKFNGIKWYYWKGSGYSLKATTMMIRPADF
As to the kind of experiment: dissociation rate screening of optimized clones (method as in Example 3, Octet; not restated).

In assay [2] the target is Ang2 immobilized on a biosensor (Octet off-rate screening) (Homo sapiens (Human)) (UniProt O15123). The assay is described as above.
Assay [3] addresses T2, His-tagged human Ang1 (R&D systems, 923-AN/CF) (human, UniProt Q15389 20-498, limits assumed).
T2 construct: Bought protein; also called hAng1-his; not shown: His tag
T2 sequence (looked up): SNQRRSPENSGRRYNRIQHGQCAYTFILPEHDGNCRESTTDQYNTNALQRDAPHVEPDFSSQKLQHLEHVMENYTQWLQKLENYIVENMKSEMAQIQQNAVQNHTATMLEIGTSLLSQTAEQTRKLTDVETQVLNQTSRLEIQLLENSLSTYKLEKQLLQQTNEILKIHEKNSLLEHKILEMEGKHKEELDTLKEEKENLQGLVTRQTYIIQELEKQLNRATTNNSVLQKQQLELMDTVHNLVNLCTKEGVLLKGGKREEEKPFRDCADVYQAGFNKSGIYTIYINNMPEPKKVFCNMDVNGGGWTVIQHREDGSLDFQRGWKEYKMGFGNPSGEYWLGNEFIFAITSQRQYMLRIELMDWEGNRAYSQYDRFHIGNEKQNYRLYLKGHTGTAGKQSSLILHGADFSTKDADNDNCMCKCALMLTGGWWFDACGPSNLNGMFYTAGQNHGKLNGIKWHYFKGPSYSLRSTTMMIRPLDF
The assay is described as follows: phage ELISA, antigen coated at 1 µg/ml, anti-M13-HRP. A general note: An ELISA detects its analyte on a solid surface through an enzyme-linked reagent.

B1: No. O10 optimized clone (screening of scFv phage library of No. 8 CDR3 variants) (scFv, V domains shown)
VH: QVQLVESGGGLVKPGGSLRLSCAASGFTFSSYSMNWVRQAPGKGLEWVSSISASDGATYYADSVRGRFTISRDNSRSTLYLQMNSLRAEDTAVYYCAKILVGYSGPMGGMDVWGQGTTVTVSS
VL: DIQMTQSPSSLSASVGDRVTITCRASRDISNYLAWYQQKPGKAPKSLIYGASNLQSGVSSQFSGSGSGTDFTLTINSLQPEDSATYYCQQYYSYPLTFGGGTKVDIKR
As usually defined, the koff is the first-order rate constant of dissociation. Read a high koff as fast dissociation. With B1, the koff in assay [1] stood at 3.92e-05 s⁻¹.

B2: No. O12 optimized clone (screening of scFv phage library of No. 8 CDR3 variants) (scFv, V domains shown)
VH: QVQLVESGGGLVKPGGSLRLSCAASGFTFSSYSMNWVRQAPGKGLEWVSSISASDGATYYADSVRGRFTISRDNSRSTLYLQMNSLRAEDTAVYYCAKSLASYSGPMGGMDVWGQGTTVTVSS
VL: DIQMTQSPSSLSASVGDRVTITCRASRDISNYLAWYQQKPGKAPKSLIYGASNLQSGVSSQFSGSGSGTDFTLTINSLQPEDSATYYCQQYYSYPLTFGGGTKVDIKR
Consider B2, for which the koff in assay [1] amounted to 1.7e-05 s⁻¹.

B3: No. O4 optimized clone (screening of scFv phage library of No. 8 CDR3 variants) (scFv, part only; not given: scFv linker, part only)
scFv, part: QVQLVESGGGLVKPGGSLRLSCAASGFTFSSYSMNWVRQAPGKGLEWVSSISASDGATYYADSVRGRFTISRDNSRSTLYLQMNSLRAEDTAVYYCAKTLAGYSGPMGGMDVWGQGTTVTVSSDIQMTQSPSSLSASVGDRVTITCRASRDISNYLAWYQQKPGKAPKSLIYGASNLQSGVSSQFSGSGSGTDFTLTINSLQPEDSATYYCQQYYSYPLTFGGGTKVDIKR
B3 returned a koff in assay [2] of 9.01e-05 s⁻¹.

B4: No. 3 monoclonal scFv phage (scFv)
chain: QMQLVQSGGGLVQPGRSLKLSCAASGFSFDDYAMHWVRQAPGKGLEWVATIKDDGSQTYYVDSVKGRFTISRDNAKSSLFLQMNSLRAEDTAVYYCTTEGLMNGLHFDMWGQGTMVTVSSLVLTQPPSVSGAPGQGVTISCTGSSSNIGAGYDVHWYQQFPGTAPKLLISGNNNRPSGLPDRFSGSKSGTSASLAITGLQAEDEADYYCQSYDSRLGVVFGGGTKLTVLG
Take B4: the OD in assay [3] was found to be 0.025 OD.
